From patent publication EP2857035B1 (Survac ApS, dated 2017) come the findings set out here.

The target in experiment [1] is T1, HLA-A2 (human).
T1 construct: MHC class I molecule without added peptide, from cell lysate; stably folded molecules immunoprecipitated with a conformation-dependent antibody; also called HLA-A*0201; HLA A*0201
Description: assembly assay, T2 cell lysate.

The next experiment addresses T2, HLA-A11 (human).
T2 construct: MHC class I molecule from cell lysate; immunoprecipitated with mAb W6/32; also called HLA-A*1101
As to the kind of experiment: assembly assay, TAP-deficient cell lysate.

The next experiment has as its target T3, HLA-A3 (human).
T3 construct: MHC class I molecule from cell lysate; immunoprecipitated with mAb W6/32; also called HLA-A*0301
As to the kind of experiment: assembly assay, TAP-deficient cell lysate.

The next experiment has as its target T4, HLA-A1 (human).
T4 construct: MHC class I molecule; also called HLA-A*0101
As to the kind of experiment: assembly assay, TAP-deficient cell lysate.

The target of experiment [2] is T1, HLA-A2. Description: assembly assay, TAP-deficient cell lysate.
A further experiment deals with HLA-B35 (human). As to the kind of experiment: assembly assay, T2-B35 cell lysate, W6/32 IP, IEF gel.

B1: Sur2 (peptide)
peptide: RAIEQLAAM
notes: also called Survivin133-141
B1: the binding result with HLA-A2 [1] is listed as “no binding”.

B2: Sur 95-103 (peptide)
peptide: ELTLGEFLK
For the molecule B2, the binding result with HLA-A11 is recorded as “no binding (tested: peptide tested at 40, 4, 0.4, 0.04 µM)”.

B3: Sur 18-27 (peptide)
peptide: RISTFKNWPF
Turning to B3, the binding result is “no binding (tested: peptide tested at 40, 4, 0.4, 0.04 µM)” with HLA-A11 and “no binding” with HLA-A3.

B4: Sur14-22 (peptide)
peptide: LKDHRISTF
Take B4: the binding result with HLA-A1 is “no binding (tested: peptide tested at 40, 4, 0.4, 0.04 µM)”.

B5: sur14Y9 (peptide)
peptide: LKDHRISTY
With B5, the binding result in the experiment with HLA-A1 is given as “no binding (tested: peptide tested at 40, 4, 0.4, 0.04 µM)”.

B6: Sur13K9 (peptide)
peptide: FLKDHRISTK
For the molecule B6, the binding result with HLA-A3 was “no binding”.

B7: Sur47-56 (peptide)
peptide: PTENEPDLAQ
As to B7, the binding result with HLA-A1 is reported as “no binding (tested: peptide tested at 40, 4, 0.4, 0.04 µM)”.

B8: Sur7 (peptide)
peptide: TAKKVRRAI
notes: also called Survivin127-135
For the molecule B8, the binding result with HLA-A2 [1] is recorded as “no binding”.

B9: Sur54-64 (peptide)
peptide: LAQCFFCFKEL
With B9, the binding result with HLA-A2 [2] was “no binding”.

B10: Sur51Y9 (peptide)
peptide: EPDLAQCFY
The molecule B10 showed a C50 with HLA-B35 of 1.5 µM.

B11: Sur51-59 (peptide)
peptide: EPDLAQCFF
notes: also called Survivin51-59
Regarding B11, the binding result with HLA-A1 was “no binding (tested: peptide tested at 40, 4, 0.4, 0.04 µM)”. The molecule further showed a C50 with HLA-B35 of 13 µM.

B12: Sur88-98 (peptide)
peptide: SVKKQFEELTL
Consider B12, for which the binding result with HLA-A2 [2] is on record as “no binding”.

B13: Sur 84-93 (peptide)
peptide: CAFLSVKKQF
For B13, the binding result with HLA-A11 is recorded as “no binding (tested: peptide tested at 40, 4, 0.4, 0.04 µM)”; with HLA-A3 it was “no binding”.

B14: Sur46Y9 (peptide)
peptide: CPTENEPDY
In the experiment with HLA-B35, B14 yielded a C50 of 4 µM.

B15: Sur 103-112 (peptide)
peptide: KLDRERAKNK
Take B15: the binding result was “no binding (tested: peptide tested at 40, 4, 0.4, 0.04 µM)” in the experiment with HLA-A11 and “no binding” with HLA-A3.

B16: Sur4-14 (peptide)
peptide: PTLPPAWQPFL
In the case of B16, in the experiment with HLA-A2 [2], the binding result was “no binding”.

B17: Sur2b-A3-1 (peptide)
peptide: RITREEHKK
notes: the text says nothing of its origin
Turning to B17, in the experiment with HLA-A3, the binding result is “no binding”.

B18: Sur6-14 (peptide)
peptide: LPPAWQPFL
notes: also called Survivin6-14
Take B18: in the experiment with HLA-B35, the C50 was more than 100 µM.

B19: Sur 53-61 (peptide)
peptide: DLAQCFFCF
As to B19, the binding result in the experiment with HLA-A11 is “no binding (tested: peptide tested at 40, 4, 0.4, 0.04 µM)”; with HLA-A3, “no binding”.

B20: Sur53K9 (peptide)
peptide: DLAQCFFCK
In the case of B20, in the experiment with HLA-A3, the binding result is on record as “no binding”.

B21: Sur 113-122 (peptide)
peptide: IAKETNNKKK
For the molecule B21, the binding result in the experiment with HLA-A11 was “no binding (tested: peptide tested at 40, 4, 0.4, 0.04 µM)”; in the experiment with HLA-A3, “no binding”.

B22: sur92Y9 (peptide)
peptide: QFEELTLGEY
As to B22, the binding result with HLA-A1 is “no binding (tested: peptide tested at 40, 4, 0.4, 0.04 µM)”.

B23: Sur10 (peptide)
peptide: ETAKKVRRAI
notes: also called Survivin126-135
As for B23, the binding result in the experiment with HLA-A2 [1] is “no binding”.

B24: Sur34-43 (peptide)
peptide: TPERMAEAGF
notes: also called Survivin34-43
For B24, in the experiment with HLA-A1, the binding result is reported as “no binding (tested: peptide tested at 40, 4, 0.4, 0.04 µM)”. For the same molecule, the C50 in the experiment with HLA-B35 was more than 100 µM.

B25: sur34Y9 (peptide)
peptide: TPERMAEAGY
Regarding B25, the binding result in the experiment with HLA-A1 is on record as “no binding (tested: peptide tested at 40, 4, 0.4, 0.04 µM)”.

B26: Sur38-46 (peptide)
peptide: MAEAGFIHC
With B26, the binding result with HLA-A1 was “no binding (tested: peptide tested at 40, 4, 0.4, 0.04 µM)”.

B27: SurEx3-A3-2 (peptide)
peptide: PTIRRKNLRK
notes: as for B17
Turning to B27, the binding result in the experiment with HLA-A3 was “no binding”.

B28: Sur 101-110 (peptide)
peptide: FLKLDRERAK
Regarding B28, the binding result with HLA-A11 was “no binding (tested: peptide tested at 40, 4, 0.4, 0.04 µM)”; with HLA-A3, “no binding”.

B29: Sur46-54 (peptide)
peptide: CPTENEPDL
notes: also called Survivin46-54
As to B29, in the experiment with HLA-B35, the C50 came to 20 µM.

B30: Sur49-58 (peptide)
peptide: ENEPDLAQCF
On to B30, for which the binding result with HLA-A1 was “no binding (tested: peptide tested at 40, 4, 0.4, 0.04 µM)”.

B31: sur49Y9 (peptide)
peptide: ENEPDLAQCY
On to B31, for which, in the experiment with HLA-A1, the binding result is “no binding (tested: peptide tested at 40, 4, 0.4, 0.04 µM)”.

B32: sur93Y9 (peptide)
peptide: FEELTLGEY
Regarding B32, the binding result in the experiment with HLA-A1 was “no binding (tested: peptide tested at 40, 4, 0.4, 0.04 µM)”.

B33: Sur103-113 (peptide)
peptide: KLDRERAKNKI
As for B33, the binding result with HLA-A2 [2] is on record as “no binding”.

B34: Sur5 (peptide)
peptide: SVKKQFEEL
notes: also called Survivin88-96
In the case of B34, the binding result with HLA-A2 [1] is given as “no binding”.
